Measurements taken from patent CN112279916A (DINGFU BIOTARGET CO LTD, dated 2021).

Molecular target: T1, hIL13RA1-EGFP (细胞表面hIL13RA1, HEK293细胞) (human, UniProt P78552 22-427)
T1 construct: also called 人IL13RA1; not shown: enhanced green fluorescent protein EGFP, UniProt C5MKY7
T1 sequence (looked up): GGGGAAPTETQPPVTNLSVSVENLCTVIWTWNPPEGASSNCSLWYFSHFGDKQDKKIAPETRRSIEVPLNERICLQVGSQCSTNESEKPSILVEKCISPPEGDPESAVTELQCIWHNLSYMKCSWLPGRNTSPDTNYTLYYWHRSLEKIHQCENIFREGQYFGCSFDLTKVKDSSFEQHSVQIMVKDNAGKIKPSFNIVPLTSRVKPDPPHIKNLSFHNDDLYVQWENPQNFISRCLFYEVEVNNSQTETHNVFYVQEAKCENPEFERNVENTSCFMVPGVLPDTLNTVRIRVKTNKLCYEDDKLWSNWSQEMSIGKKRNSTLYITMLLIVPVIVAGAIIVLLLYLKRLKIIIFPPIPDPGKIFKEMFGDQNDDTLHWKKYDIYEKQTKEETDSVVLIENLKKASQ
Test: FACS on hIL13RA1-EGFP HEK293 cells, 2 μg antibody, secondary antibody anti-hIg-PE

B1: anti-hIL13RA1 scFv抗体 (Fc fusion)
scFv: QVQLQQSGPGLVKPSQTLLITCAISGDSVSSNSAAWNWIRQSPSGSLEWLGRTYYRSKWYSHYAVSVTGRMTINSDSSKNQFSLQLDSVTPEDMAIYYCAREEVAGRGSFDFWGQGTLVTVSSGILGSGGGGSGGGGSGGGGSDIQLTQSPSFLSASVGDRVTITCRASQSISKNLVWYQQKPGKAPKLLIYSASTLQSGVPSRFSGSGSGTDFTLTISSLQPEDCALYFCQQAHSFPVTFGQGTRLEIK
notes: also called anti-IL13RA1 35#; IL13RA1抗体; not shown: human IgG1-Fc domain, UniProt P01857 residues 104-330
- binding result: binds
